In general, Kd refers to the constant that tells how readily two partners part at equilibrium. High values mean lower affinity, low ones higher affinity.

Among the targets are FcγRIIa-131R; FcγRIIIa-158V; FcγRIIa-131H; FcγRIIIa-158F; FcγRIIb.
Holding throughout (test): SPR
In experiment [1] the target is T1, FcγRI (CD64) extracellular domain (UniProt P12314 16-292).
T1 chain: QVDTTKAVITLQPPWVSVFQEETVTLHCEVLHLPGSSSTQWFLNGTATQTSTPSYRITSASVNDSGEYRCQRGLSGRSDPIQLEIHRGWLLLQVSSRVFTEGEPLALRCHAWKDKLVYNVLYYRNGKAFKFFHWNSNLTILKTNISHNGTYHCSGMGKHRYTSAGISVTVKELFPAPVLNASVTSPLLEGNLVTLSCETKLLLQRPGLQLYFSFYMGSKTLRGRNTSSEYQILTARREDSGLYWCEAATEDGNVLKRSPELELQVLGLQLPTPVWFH

B1: LY3454738 IgG4 S228P (ucenprubart) (antibody)
chain 1: QVQLVQSGAEVKKPGASVKVSCKASGFSFSSGYYMAWVRQAPGQGLEWMGLIGVGSGSLWYAQKFQGRVTMTRDTSTSTVYMELSSLRSEDTAVYYCARHFALSDPFNLWGQGTLVTVSS
chain 2: EIVLTQSPDFQSVTPKEKVTITCQASESIDSYLLWYQQKPDQSPKLLIKQASTLASGVPSRFSGSGSGTDFTLTINSLEAEDAATYYCQNYYDISSNDFGGGTKVEIK
As for B1, the Kd with FcγRIIa-131R was 1800 nM; with FcγRIIIa-158V it was 5000 nM; in the experiment with FcγRIIa-131H, 4400 nM; with FcγRIIIa-158F, greater than 10000 nM; with FcγRIIb, 1900 nM; in experiment [1], 0.474 nM.

The values above are taken from paper PMC12046042 (2025).
